In US20190112393 (published 2019):
Like-named read-outs stand apart in the source and are kept apart here.

T1: human FcγRIIb (human, UniProt P31994)
T1 chain: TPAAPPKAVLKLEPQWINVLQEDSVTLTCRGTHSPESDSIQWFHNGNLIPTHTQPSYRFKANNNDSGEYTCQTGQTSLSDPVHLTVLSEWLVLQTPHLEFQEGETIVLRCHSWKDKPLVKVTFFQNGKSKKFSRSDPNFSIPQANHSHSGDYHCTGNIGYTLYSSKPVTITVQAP

T2: human FcγRIa (human, UniProt P12314)
T2 chain: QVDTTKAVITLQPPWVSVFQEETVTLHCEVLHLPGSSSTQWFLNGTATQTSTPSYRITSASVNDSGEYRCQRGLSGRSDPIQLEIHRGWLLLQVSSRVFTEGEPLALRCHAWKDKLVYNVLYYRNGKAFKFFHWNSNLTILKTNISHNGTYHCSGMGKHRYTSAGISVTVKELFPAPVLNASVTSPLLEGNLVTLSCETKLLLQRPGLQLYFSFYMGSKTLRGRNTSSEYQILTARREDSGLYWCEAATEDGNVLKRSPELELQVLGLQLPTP

T3: mouse FcγRIV (mouse, UniProt A0A0B4J1G0)
T3 chain: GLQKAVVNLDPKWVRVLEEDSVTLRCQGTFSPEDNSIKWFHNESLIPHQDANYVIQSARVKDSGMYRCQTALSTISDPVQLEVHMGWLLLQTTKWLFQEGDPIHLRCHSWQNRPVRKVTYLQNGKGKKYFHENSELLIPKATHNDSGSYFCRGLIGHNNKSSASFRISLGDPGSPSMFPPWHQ

T4: mouse FcγRI (mouse, UniProt P26151)
T4 chain: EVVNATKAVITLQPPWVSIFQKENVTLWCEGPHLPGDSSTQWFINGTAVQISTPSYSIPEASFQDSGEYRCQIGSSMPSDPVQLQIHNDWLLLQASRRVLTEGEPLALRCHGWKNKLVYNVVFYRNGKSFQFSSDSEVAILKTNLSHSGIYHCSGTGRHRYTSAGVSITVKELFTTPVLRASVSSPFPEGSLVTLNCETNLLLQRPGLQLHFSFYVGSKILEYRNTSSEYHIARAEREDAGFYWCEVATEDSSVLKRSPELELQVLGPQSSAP


How the values were obtained:
Assay in all cases: SPR
human FcγRIIb [1] = biological target: T1, human FcγRIIb
human FcγRIIb [2] = biological target: T1, human FcγRIIb
human FcγRIa = biological target: T2, human FcγRIa
human FcγRIIb [3] = biological target: T1, human FcγRIIb
mouse FcγRIV = biological target: T3, mouse FcγRIV
mouse FcγRI = biological target: T4, mouse FcγRI

| Binder | Kd (human FcγRIa) | binding result (mouse FcγRIV) | binding result (mouse FcγRI) | also measured |
| --- | --- | --- | --- | --- |
| BP464 (antibody) chain 1: QVQLQESGPGLVKPSETLSLTCAVSGHSISHDHAWSWVRQPPGEGLEWIGFISYSGITNYNPSLQGRVTISRDNSKNTLYLQMNSLRAEDTAVYYCARSLARTTAMDYWGEGTLVTVSSASTKGPSVFPLAPSSKSTSGGTAALGCLVKDYFPEPVTVSWNSGALTSGVHTFPAVLQSSGLYSLSSVVTVPSSSLGTQTYICNVNHKPSNTKVDKKVEPKSCDKTHTCPPCPAPDLLGDDSVFLFPPKPKDTLMISRTPEVTCVVVDVAEEDGEVKFNWYVDGVEVHNAKTKPREEQYNSTYRVVSVLTVLHQDWLNGKEYKCKVSNKALPRPIEKTISKAKGQPREPQVYTLPPSRDELTKNQVSLTCLVKGFYPSDIAVEWESNGQPENNYKTTPYVLDSDGSFFLYSKLTVDKSRWQQGNVFSCSVMHEALHNHYTQESLSLSP chain 2: not shown |  |  |  | Kd (human FcγRIIb [1]): 4 nM |
| BP084 (antibody) chain 1: QVQLQESGPGLVKPSETLSLTCAVSGHSISHDHAWSWVRQPPGEGLEWIGFISYSGITNYNPSLQGRVTISRDNSKNTLYLQMNSLRAEDTAVYYCARSLARTTAMDYWGEGTLVTVSSASTKGPSVFPLAPSSKSTSGGTAALGCLVKDYFPEPVTVSWNSGALTSGVHTFPAVLQSSGLYSLSSVVTVPSSSLGTQTYICNVNHKPSNTKVDKKVEPKSCDKTHTCPPCPAPELLGGDSVFLFPPKPKDTLMISRTPEVTCVVVDVSHEDPEVKFNWYVDGVEVHNAKTKPREEQYNSTYRVVSVLTVLHQDWLNGKEYKCKMSNKALPKPIEKTISKAKGQPREPQVYTLPPSRDELTKNQVSLTCLVKGFYPSDIAVEWESNGQPENNYKTTPPVLDSDGSFFLYSKLTVDKSRWQQGNVFSCSVMHEALHNHYTQESLSLSP chain 2: not shown | 7 nM |  |  | Kd (human FcγRIIb [2]): 500 nM |
| BP182 (antibody) chain 1: QVQLQESGPGLVKPSETLSLTCAVSGHSISHDHAWSWVRQPPGEGLEWIGFISYSGITNYNPSLQGRVTISRDNSKNTLYLQMNSLRAEDTAVYYCARSLARTTAMDYWGEGTLVTVSSASTKGPSVFPLAPSSKSTSGGTAALGCLVKDYFPEPVTVSWNSGALTSGVHTFPAVLQSSGLYSLSSVVTVPSSSLGTQTYICNVNHKPSNTKVDKKVEPKSCDKTHTCPPCPAPDLLGGDSVFLFPPKPKDTLMISRTPEVTCVVVDVSHEDGEVKFNWYVDGVEVHNAKTKPREEQDNSTYRVVSVLTVLHQDWLNGKEYKCKVSNKALPKPIEKTISKAKGQPREPQVYTLPPSRDELTKNQVSLTCLVKGFYPSDIAVEWESNGQPENNYKTTPPVLDSDGSFFLYSKLTVDKSRWQQGNVFSCSVMHEALHNHYTQESLSLSP chain 2: not shown | 10 nM |  |  |  |
| BP367 (antibody) chain 1: QVQLQESGPGLVKPSETLSLTCAVSGHSISHDHAWSWVRQPPGEGLEWIGFISYSGITNYNPSLQGRVTISRDNSKNTLYLQMNSLRAEDTAVYYCARSLARTTAMDYWGEGTLVTVSSASTKGPSVFPLAPSSKSTSGGTAALGCLVKDYFPEPVTVSWNSGALTSGVHTFPAVLQSSGLYSLSSVVTVPSSSLGTQTYICNVNHKPSNTKVDKKVEPKSCDKTHTCPPCPAPDLLGDDSVFLFPPKPKDTLMISRTPEVTCVVVDVSEDDGEVKFNWYVDGVEVHNAKTKPREEQYNSTYRVVSVLTVLHQDWLNGKEYKCKVSNKALPAPIEKTISKAKGQPREPQVYTLPPSRDELTKNQVSLTCLVKGFYPSDIAVEWESNGQPENNYKTTPPVLDSDGSFFLYSKLTVDKSRWQQGNVFSCSVMHEALHNHYTQESLSLSP chain 2: not shown |  |  |  | Kd (human FcγRIIb [3]): 100 nM |
| BP455 (antibody) chain 1: QVQLQESGPGLVKPSETLSLTCAVSGHSISHDHAWSWVRQPPGEGLEWIGFISYSGITNYNPSLQGRVTISRDNSKNTLYLQMNSLRAEDTAVYYCARSLARTTAMDYWGEGTLVTVSSASTKGPSVFPLAPSSKSTSGGTAALGCLVKDYFPEPVTVSWNSGALTSGVHTFPAVLQSSGLYSLSSVVTVPSSSLGTQTYICNVNHKPSNTKVDKKVEPKSCDKTHTCPPCPAPDLLGDDSVFLFPPKPKDTLMISRTPEVTCVVVDVAEEDGEVKFNWYVDGVEVHNAKTKPREEQYNSTYRVVSVLTVLHQDWLNGKEYKCKVSNKALPRPIEKTISKAKGQPREPQVYTLPPSRDELTKNQVSLTCLVKGFYPSDIAVEWESNGQPENNYKTTPLVLDSDGSFFLYSKLTVDKSRWQQGNVFSCSVMHEALHNHYTQESLSLSP chain 2: not shown |  |  |  | Kd (human FcγRIIb [1]): 4 nM |
| BP350 (antibody) chain 1: QVQLQESGPGLVKPSETLSLTCAVSGHSISHDHAWSWVRQPPGEGLEWIGFISYSGITNYNPSLQGRVTISRDNSKNTLYLQMNSLRAEDTAVYYCARSLARTTAMDYWGEGTLVTVSSASTKGPSVFPLAPSSKSTSGGTAALGCLVKDYFPEPVTVSWNSGALTSGVHTFPAVLQSSGLYSLSSVVTVPSSSLGTQTYICNVNHKPSNTKVDKKVEPKSCDKTHTCPPCPAPDLLGDDSVFLFPPKPKDTLMISRTPEVTCVVVDVEEEDGEVKFNWYVDGVEVHNAKTKPREEQYNSTYRVVSVLTVLHQDWLNGKEYKCKVSNKALPAPIEKTISKAKGQPREPQVYTLPPSRDELTKNQVSLTCLVKGFYPSDIAVEWESNGQPENNYKTTPPVLDSDGSFFLYSKLTVDKSRWQQGNVFSCSVMHEALHNHYTQESLSLSP chain 2: not shown |  |  |  | Kd (human FcγRIIb [3]): 100 nM |
| 2B261 (antibody) chain 1: QVQLQESGPGLVKPSETLSLTCAVSGHSISHDHAWSWVRQPPGEGLEWIGFISYSGITNYNPSLQGRVTISRDNSKNTLYLQMNSLRAEDTAVYYCARSLARTTAMDYWGEGTLVTVSSASTKGPSVFPLAPSSKSTSGGTAALGCLVKDYFPEPVTVSWNSGALTSGVHTFPAVLQSSGLYSLSSVVTVPSSSLGTQTYICNVNHKPSNTKVDKKVEPKSCDKTHTCPPCPAPDLLGGDSVFLFPPKPKDTLMISRTPEVTCVVVDVSHEDPEVKFNWYVDGVEVHNAKTKPREEQDNSTYRVVSVLTVLHQDWLNGKEYKCKVSNKALPAPIEKTISKAKGQPREPQVYTLPPSRDELTKNQVSLTCLVKGFYPSDIAVEWESNGQPENNYKTTPPVLDSDGSFFLYSKLTVDKSRWQQGNVFSCSVMHEALHNHYTQESLSLSP chain 2: not shown | 9 nM |  |  | Kd (human FcγRIIb [2]): 1000 nM |

Second part, led by results:

| Kd (human FcγRIa) | binding result (mouse FcγRIV) | binding result (mouse FcγRI) | Binder | also measured |
| --- | --- | --- | --- | --- |
|  | no binding | no binding | VH3/L(WT)-mIgG1-mF44 (antibody) chain 1: QVQLQESGPGLVKPSETLSLTCAVSGHSISHDHAWSWVRQPPGEGLEWIGFISYSGITNYNPSLQGRVTISRDNSKNTLYLQMNSLRAEDTAVYYCARSLARTTAMDYWGEGTLVTVSSAKTTPPSVYPLAPGSAAQTNSMVTLGCLVKGYFPEPVTVTWNSGSLSSGVHTFPAVLQSDLYTLSSSVTVPSSTWPSETVTCNVAHPASSTKVDKKIVPRDCGCKPCICTVPEVSSVFIFPPKPKDVLTITLTPKVTCVVVDISKDDPEVQFSWFVDDVEVHTAQTQPREEQFNSTFRSVSELPIMHQDWLNGKEFKCRVNSADFPAPIEKTISKTKGRPKAPQVYTIPPPKEQMAKDKVSLTCMITDFFPEDITVEWQWNGQPAENYKNTQPIMDTDGSYFVYSKLNVQKSNWEAGNTFTCSVLHEGLHNHHTEKSLSHSPGK chain 2: not shown |  |
|  | no binding | no binding | VH3/L(WT)-mIgG1-mF46 (antibody) chain 1: QVQLQESGPGLVKPSETLSLTCAVSGHSISHDHAWSWVRQPPGEGLEWIGFISYSGITNYNPSLQGRVTISRDNSKNTLYLQMNSLRAEDTAVYYCARSLARTTAMDYWGEGTLVTVSSAKTTPPSVYPLAPGSAAQTNSMVTLGCLVKGYFPEPVTVTWNSGSLSSGVHTFPAVLQSDLYTLSSSVTVPSSTWPSETVTCNVAHPASSTKVDKKIVPRDCGCKPCICTVPEVSDVFIFPPKPKDVLTITLTPKVTCVVVDISKDDPEVQFSWFVDDVEVHTAQTQPREEQFNSTFRSVSELPIMHQDWLNGKEFKCRVNSADFPAPIEKTISKTKGRPKAPQVYTIPPPKEQMAKDKVSLTCMITDFFPEDITVEWQWNGQPAENYKNTQPIMDTDGSYFVYSKLNVQKSNWEAGNTFTCSVLHEGLHNHHTEKSLSHSPGK chain 2: not shown |  |
|  | no binding | no binding | VH3/L(WT)-mIgG1 (antibody) chain 1: QVQLQESGPGLVKPSETLSLTCAVSGHSISHDHAWSWVRQPPGEGLEWIGFISYSGITNYNPSLQGRVTISRDNSKNTLYLQMNSLRAEDTAVYYCARSLARTTAMDYWGEGTLVTVSSAKTTPPSVYPLAPGSAAQTNSMVTLGCLVKGYFPEPVTVTWNSGSLSSGVHTFPAVLQSDLYTLSSSVTVPSSTWPSETVTCNVAHPASSTKVDKKIVPRDCGCKPCICTVPEVSSVFIFPPKPKDVLTITLTPKVTCVVVDISKDDPEVQFSWFVDDVEVHTAQTQPREEQFNSTFRSVSELPIMHQDWLNGKEFKCRVNSAAFPAPIEKTISKTKGRPKAPQVYTIPPPKEQMAKDKVSLTCMITDFFPEDITVEWQWNGQPAENYKNTQPIMDTDGSYFVYSKLNVQKSNWEAGNTFTCSVLHEGLHNHHTEKSLSHSPGK chain 2: not shown |  |
